What was measured:
[1] = biological target: T1, human IgE (human, UniProt P01854 1-428); assay: ELISA, plate-coated IgE, apparent Kd (one site fit)
T1 construct: written under the same molecule; also called IgE (Abcam ab65866); soluble IgE

[2] = biological target: T1, human IgE; assay: SPR (Biacore T200, 37 C), IgE medium density (~114 RU) on protein L, 1:1 fit
Method: (§1) All experiments were done using a Biacore T200 instrument with a CM5 chip at 37° C. except immobilization of Protein L, which was done at 25° C.
(§2) For this study Flow Cell (FC) 1 was used as the reference for FC2, FC3 and FC4. Protein L (15 mg/ml stock concentration) was diluted (1:50 dilution, 0.3 mg/ml diluted concentration) in 10 mM sodium acetate buffer at pH 4.5 and immobilized onto all FCs to a level of ˜14000 RU, using the standard amine coupling chemistry. HBS-P (10 mM Hepes, pH 7.4, 150 mM NaCl, 0.05% v/v surfactant P20) was used as the immobilization running buffer. […] HBS-P was used as the capture running buffer. Overnight kinetics were performed for all analytes in the presence of HBS-P. The flow rate of all analyte solutions was maintained at 50 μL/min. The contact and dissociation times used were 120 seconds and 600 seconds, respectively. Glycine pH 1.5 was injected for 20 seconds for surface regeneration. This regeneration condition takes away all captured ligand. Therefore, fresh ligand solution was captured in the beginning of each injection cycle. Injected analyte concentrations are from 80 nM to 0.01953 nM (four-fold dilutions). All analytes were injected in duplicate.

[3] = biological target: T1, human IgE; assay: ELISA, human IgE coated
Method: (§3) The following day, plates were blocked with 1% BSA in PBS for 30 min-1 hour. […] Afterwards, the plates were PBST washed with the plate washer and detected with Peroxidase AffiniPure Donkey Anti-Human IgG, Fcγ fragment specific secondary detection antibody. Room temperature TMB was added and OD650 was measured using the Emax plate reader. […] Room temperature TMB was added and OD650 was measured using the Emax plate reader. The data was plotted and analyzed using GraphPad Prism analysis software.

[4] = biological target: T1, human IgE; assay: ELISA, blocks binding of 5 nM IgE to coated FCER1A
Method: as §3

[5] = biological target: recombinant human anti-hapten dinitrophenol (DNP) IgE (rhIgE) (human, UniProt P01854-1 1-428); assay: cell-based or functional assay
[6] = biological target: T1, human IgE; assay: SPR (Biacore T200, 37 C), IgE high density (~1400 RU) on protein L, 1:1 fit
Method: as §1, §2

[7] = biological target: T1, human IgE; assay: ELISA, plate-coated IgE
[8] = biological target: T1, human IgE; assay: flow cytometry, blocks binding of 5 nM IgE to FCER1A on human mast cells
Method: After this period of time, the cells were expanded in volume with StemPro™-34 SFM cell culture media that contained only IL-6 and rhSCF for a duration of 8 weeks. By week 10 at full differentiation, these cells expressed a combination of surface cell receptors that are distinct to human mast cells, including FCER1A. The in vitro derived mast cells are also capable of being activated and undergoing degranulation upon crosslinking of FCER1A.
Eleven point, four-fold dilutions (starting at 500 nM, in FACS buffer) of the complexed antibodies were added to the mast cells (25k cells/well) and incubated for 60 minutes at room temperature. […] Next, the mast cells were washed twice, and bound antibodies were detected via flow cytometry (Novocyte). The data was plotted using GraphPad Prism analysis software. The IC₅₀s were determined by the default curve fitting [Inhibitor] vs. response as described above.

[9] = biological target: human IgE pre-complexed to FCER1A on the surface of human mast cells (human, UniProt P01854-1 1-428); assay: flow cytometry on IgE-loaded human mast cells
[10] = biological target: T1, human IgE; assay: SPR, blocks binding of 5 nM IgE to captured FCER1A
Method: as §1
Sensorgrams from the overnight kinetics were plotted for further evaluation.

[11] = biological target: T1, human IgE; assay: SPR (Biacore T200, 37 C), IgE low density (~14 RU) on protein L, 1:1 fit
Method: as §1, §2

[12] = biological target: human IgM (Novus, NBP1-97056) (human, UniProt P01871-1 1-453); assay: ELISA, plate-coated immunoglobulin
human IgM (Novus, NBP1-97056), sequence (P01871 other isoform, or with tags, fused parts or gaps): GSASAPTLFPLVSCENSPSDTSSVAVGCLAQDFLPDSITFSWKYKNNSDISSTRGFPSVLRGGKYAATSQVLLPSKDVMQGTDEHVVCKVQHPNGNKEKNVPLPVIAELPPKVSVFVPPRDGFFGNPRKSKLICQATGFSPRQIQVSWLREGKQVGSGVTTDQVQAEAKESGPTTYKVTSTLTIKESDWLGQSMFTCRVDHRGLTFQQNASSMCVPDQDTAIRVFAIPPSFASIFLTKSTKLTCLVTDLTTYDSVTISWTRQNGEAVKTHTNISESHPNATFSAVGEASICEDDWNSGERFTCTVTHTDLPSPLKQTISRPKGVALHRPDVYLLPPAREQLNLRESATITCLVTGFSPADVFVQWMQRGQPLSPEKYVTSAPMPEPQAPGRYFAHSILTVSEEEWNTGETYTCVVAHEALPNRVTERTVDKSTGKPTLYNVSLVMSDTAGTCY

T1 sequence (P01854 other isoform, or with tags, fused parts or gaps limits assumed, form in doubt): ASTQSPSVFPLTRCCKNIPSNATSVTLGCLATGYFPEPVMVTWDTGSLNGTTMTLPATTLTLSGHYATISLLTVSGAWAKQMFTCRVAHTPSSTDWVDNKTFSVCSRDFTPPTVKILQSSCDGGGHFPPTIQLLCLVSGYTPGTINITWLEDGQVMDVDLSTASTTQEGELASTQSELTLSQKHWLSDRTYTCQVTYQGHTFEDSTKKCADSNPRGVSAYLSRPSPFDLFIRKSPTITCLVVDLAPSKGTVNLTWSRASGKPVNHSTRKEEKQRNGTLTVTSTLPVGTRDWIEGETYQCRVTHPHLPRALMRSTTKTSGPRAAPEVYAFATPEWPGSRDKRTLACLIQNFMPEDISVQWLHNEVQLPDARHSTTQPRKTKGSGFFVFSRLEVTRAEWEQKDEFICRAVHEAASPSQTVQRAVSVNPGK
recombinant human anti-hapten dinitrophenol (DNP) IgE (rhIgE), sequence (P01854 other isoform, or with tags, fused parts or gaps): as the sequence (P01854 other isoform, or with tags, fused parts or gaps limits assumed, form in doubt) above
human IgE pre-complexed to FCER1A on the surface of human mast cells, sequence (P01854 other isoform, or with tags, fused parts or gaps): as the sequence (P01854 other isoform, or with tags, fused parts or gaps limits assumed, form in doubt) above

Kd [1]: 0.266 nM
Kd [2]: 0.6 nM
koff [2]: 0.000207 s⁻¹
kon [2]: 373000 M⁻¹ s⁻¹
Bmax [3]: 0.808 OD 650
Kd [3]: 0.11 nM
IC50 [4]: 7.63 nM
Activation IC50 (nM), CD63 on mast cells [5]: 3.09 nM
Kd [6]: 1.1 nM
koff [6]: 0.000258 s⁻¹
kon [6]: 242000 M⁻¹ s⁻¹
Bmax (OD 650 nm) [7]: 0.873 OD 650 nm
IC50 [8]: 0.61 nM
IC50 [10]: ~3.4 nM
Kd [11]: 0.6 nM
koff [11]: 0.000449 s⁻¹
kon [11]: 422000 M⁻¹ s⁻¹
binding result [12]: no binding
B1: hzB10v40-IgG1 DSELF Fc region (cx13032) (Fc fusion)
chain: EVQLLESGGGEVQPGGSLRLSCVASGLTFSSYNMGWLRQAPGKEREFVGLSGSSSTSTYYAESVKGRFTISRDNAKNTVYLQMTSLRAEDTAVYYCAARRLLSTYWSDRSWDFWGQGTLVTVEPGGGGDKTHTCPPCPAPELLDGPSVFLFPPKPKDTLMISRTPEVTCVVVDVEHEDPEVKFNWYVDGVEVHNAKTKPREEQYNSTYRVVSVLTVLHQDWLNGKEYKCKVSNKAFPAPIEKTISKAKGQPREPQVYTLPPSREEMTKNQVSLTCLVKGFYPSDIAVEWESNGQPENNYKTTPPVLDSDGSFFLYSKLTVDKSRWQQGNVFSCSVMHEALHNHYTQKSLSLSPGK
notes: hzB10v40 VHH + GGGG linker + IgG1 DSELF Fc; described as bivalent; also called hzB10v40-DSELF; hzB10v40-IgG DSELF Fc
binding result [9]: no binding (tested: titrated from 1000 nM)

From US20250163186A1 (PHYLAXIS BIOSCIENCE, published 2025)
